Assay results reported in patent US20210246166A1 (Bayer, published 2021).
Numbered stars: 1 amine (or outer) side, 2 acyl side, 3 side chain; on linkers, the order of the positions; unused ones are H or OH. Bridge positions count the residues as written; N and C are the ends. Square brackets hold non-standard residues; d marks the D form. Primed or numbered codes have the meaning given here. Ends that are not written are not given here. * marks the point of attachment. X12 = (S)‑(trifluoromethyl)‑L‑cysteine, O=C([C@H](CSC(F)(F)F)N[*:1])[*:2]; Tranexamic″ = tranexamic acid, NC[C@H]1CC[C@@H](C(=O)*)CC1; Oic = O=C(O)[C@@H]1C[C@@H]2CCCC[C@@H]2N1; tBuAla = CC(C)(C)C[C@H](N)C(=O)O; 4Pal = N[C@@H](Cc1ccncc1)C(=O)O; Gly(cBu) = N[C@H](C(=O)O)C1CCC1; Chg = N[C@H](C(=O)O)C1CCCCC1; Pen = CC(C)(S)[C@H](N)C(=O)O; 3Amb = NCc1cccc(C(=O)O)c1; NMeC = CN[C@@H](CS)C(=O)O; Orn = NCCC[C@H](N)C(=O)O; Nva = CCC[C@H](N)C(=O)O; PEG2 = NCCOCCOCCC(=O)O; Sar = CNCC(=O)O

T1: Recombinant human MASP1 enzyme (fragment corresponding to amino acids 297-699, C-terminal His Tag) (human, UniProt P48740 297-699)
T1 sequence: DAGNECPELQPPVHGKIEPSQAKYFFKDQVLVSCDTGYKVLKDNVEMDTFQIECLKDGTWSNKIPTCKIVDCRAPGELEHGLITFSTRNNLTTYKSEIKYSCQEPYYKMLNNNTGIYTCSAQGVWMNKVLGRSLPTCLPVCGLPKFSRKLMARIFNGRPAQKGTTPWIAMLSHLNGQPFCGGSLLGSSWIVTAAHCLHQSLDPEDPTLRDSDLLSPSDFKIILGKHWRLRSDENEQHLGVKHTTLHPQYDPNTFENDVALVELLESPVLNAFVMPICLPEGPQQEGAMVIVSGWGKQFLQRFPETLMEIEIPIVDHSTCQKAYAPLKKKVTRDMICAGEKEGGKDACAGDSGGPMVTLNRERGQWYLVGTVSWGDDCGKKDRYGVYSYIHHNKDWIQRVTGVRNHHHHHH


Experiments:
[1] = biological target: T1, Recombinant human MASP1 enzyme …; assay: cell-based or functional assay
[2] = biological target: Recombinant human MASP2 enzyme (fragment corresponding to amino acids 297-686, C-terminal His Tag) (human, UniProt O00187 297-686); assay: cell-based or functional assay
Chain of Recombinant human MASP2 enzyme (fragment corresponding to amino acids 297-686, C-terminal His Tag) (O00187 other isoform, or with tags, fused parts or gaps limits assumed): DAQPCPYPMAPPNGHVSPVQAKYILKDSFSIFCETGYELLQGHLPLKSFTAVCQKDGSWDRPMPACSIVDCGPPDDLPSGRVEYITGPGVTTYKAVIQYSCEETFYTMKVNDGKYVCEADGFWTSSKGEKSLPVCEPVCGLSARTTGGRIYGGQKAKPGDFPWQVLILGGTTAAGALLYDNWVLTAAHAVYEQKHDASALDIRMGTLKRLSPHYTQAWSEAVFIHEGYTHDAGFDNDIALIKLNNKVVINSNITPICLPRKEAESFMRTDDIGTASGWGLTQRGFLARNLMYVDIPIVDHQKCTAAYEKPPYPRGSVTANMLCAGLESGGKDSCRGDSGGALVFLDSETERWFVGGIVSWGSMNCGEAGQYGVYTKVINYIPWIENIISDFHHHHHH

| Binder | human MASP1 IC50 [1] [nM] | human MASP2 IC50 [2] [nM] |
| --- | --- | --- |
| AICSRSLPP[Chg]CIPD-OH (disulfide 3-11; N-terminus assumed; SMILES CC[C@H](C)[C@H](NC(=O)[C@H](C)N)C(=O)N[C@H]1CSSC[C@@H](C(=O)N[C@H](C(=O)N2CCC[C@H]2C(=O)N[C@@H](CC(=O)O)C(=O)O)[C@@H](C)CC)NC(=O)[C@H](C2CCCCC2)NC(=O)[C@@H]2CCCN2C(=O)[C@@H]2CCCN2C(=O)[C@H](CC(C)C)NC(=O)[C@H](CO)NC(=O)[C@H](CCCNC(=N)N)NC(=O)[C@H](CO)NC1=O) [AIC+SRSLPP-(Chg)-C+IPD-OH] | 6.5 | 140 |
| [Sar]ICSRS[X12]PPI[Pen]IP-NH2 (disulfide 3-11; N-terminus assumed; SMILES CC[C@H](C)[C@H](NC(=O)CNC)C(=O)N[C@H]1CSSC(C)(C)[C@@H](C(=O)N[C@H](C(=O)N2CCC[C@H]2C(N)=O)[C@@H](C)CC)NC(=O)[C@H]([C@@H](C)CC)NC(=O)[C@@H]2CCCN2C(=O)[C@@H]2CCCN2C(=O)[C@H](CSC(F)(F)F)NC(=O)[C@H](CO)NC(=O)[C@H](CCCNC(=N)N)NC(=O)[C@H](CO)NC1=O) [((N-Me)G)-IC+SRS-((S)-(trifluoromethyl)-L-cysteine)-PPI-(Pen)+IP-NH2] | 6.1 | 27 |
| AICSRSLPPIC[Gly(cBu)]PD-NH2 (disulfide 3-11; N-terminus assumed; SMILES CC[C@H](C)[C@H](NC(=O)[C@H](C)N)C(=O)N[C@H]1CSSC[C@@H](C(=O)N[C@H](C(=O)N2CCC[C@H]2C(=O)N[C@@H](CC(=O)O)C(N)=O)C2CCC2)NC(=O)[C@H]([C@@H](C)CC)NC(=O)[C@@H]2CCCN2C(=O)[C@@H]2CCCN2C(=O)[C@H](CC(C)C)NC(=O)[C@H](CO)NC(=O)[C@H](CCCNC(=N)N)NC(=O)[C@H](CO)NC1=O) [AIC+SRSLPPIC+(Cbg)-PD-NH2] | 6.5 | 410 |
| {Tranexamic″}-ICSRS[tBuAla]PPI[Pen]IP-{PEG2-NH2} (disulfide 2-10; SMILES CC[C@H](C)[C@@H]1NC(=O)[C@@H]2CCCN2C(=O)[C@@H]2CCCN2C(=O)[C@H](CC(C)(C)C)NC(=O)[C@H](CO)NC(=O)[C@H](CCCNC(=N)N)NC(=O)[C@H](CO)NC(=O)[C@@H](NC(=O)[C@@H](NC(=O)[C@H]2CC[C@@H](CN)CC2)[C@@H](C)CC)CSSC(C)(C)[C@@H](C(=O)N[C@H](C(=O)N2CCC[C@H]2C(=O)NCCOCCOCCC(N)=O)[C@@H](C)CC)NC1=O) [(Tranexamic)-IC+SRS-((tBu)A)-PPI-(Pen)+IP-(PEG1(10 atoms))-NH2] | 6.5 | 13 |
| FICSRS[tBuAla]PPI[Pen]IPD-NH2 (disulfide 3-11; N-terminus assumed; SMILES CC[C@H](C)[C@H](NC(=O)[C@@H](N)Cc1ccccc1)C(=O)N[C@H]1CSSC(C)(C)[C@@H](C(=O)N[C@H](C(=O)N2CCC[C@H]2C(=O)N[C@@H](CC(=O)O)C(N)=O)[C@@H](C)CC)NC(=O)[C@H]([C@@H](C)CC)NC(=O)[C@@H]2CCCN2C(=O)[C@@H]2CCCN2C(=O)[C@H](CC(C)(C)C)NC(=O)[C@H](CO)NC(=O)[C@H](CCCNC(=N)N)NC(=O)[C@H](CO)NC1=O) [FIC+SRS-((tBu)A)-PPI-(Pen)+IPD-NH2] | 5.8 | 73 |
| [Sar]ICSRSLP[Oic]I[Pen]IPE-OH (disulfide 3-11; N-terminus assumed; SMILES CC[C@H](C)[C@H](NC(=O)CNC)C(=O)N[C@H]1CSSC(C)(C)[C@@H](C(=O)N[C@H](C(=O)N2CCC[C@H]2C(=O)N[C@@H](CCC(=O)O)C(=O)O)[C@@H](C)CC)NC(=O)[C@H]([C@@H](C)CC)NC(=O)[C@@H]2C[C@@H]3CCCC[C@@H]3N2C(=O)[C@@H]2CCCN2C(=O)[C@H](CC(C)C)NC(=O)[C@H](CO)NC(=O)[C@H](CCCNC(=N)N)NC(=O)[C@H](CO)NC1=O) [((N-Me)G)-IC+SRSLP-(Oic)-I-(Pen)+IPE-OH] | 6.2 | 180 |
| {2‑(3-Pyridyl)acetyl}-ICSRS[tBuAla]PPI[Pen]IP-NH2 (disulfide 2-10) [(2-(3-Pyridyl)acetic acid)-IC+SRS-((tBu)A)-PPI-(Pen)+IP-NH2] | 7 | 8.5 |
| [3Amb]ICSRS[tBuAla]PP[Pen]IP-NH2 (disulfide 3-10; N-terminus assumed; SMILES CC[C@H](C)[C@H](NC(=O)c1cccc(CN)c1)C(=O)N[C@H]1CSSC(C)(C)[C@@H](C(=O)N[C@H](C(=O)N2CCC[C@H]2C(N)=O)[C@@H](C)CC)NC(=O)[C@@H]2CCCN2C(=O)[C@@H]2CCCN2C(=O)[C@H](CC(C)(C)C)NC(=O)[C@H](CO)NC(=O)[C@H](CCCNC(=N)N)NC(=O)[C@H](CO)NC1=O) [(3-(Aminomethyl)benzoic acid)-IC+SRS-((tBu)A)-PP-(Pen)+IP-NH2] | 6.4 | 16 |
| [Sar]GICSRS[tBuAla]PPI[Pen]IPD-NH2 (disulfide 4-12; N-terminus assumed; SMILES CC[C@H](C)[C@H](NC(=O)CNC(=O)CNC)C(=O)N[C@H]1CSSC(C)(C)[C@@H](C(=O)N[C@H](C(=O)N2CCC[C@H]2C(=O)N[C@@H](CC(=O)O)C(N)=O)[C@@H](C)CC)NC(=O)[C@H]([C@@H](C)CC)NC(=O)[C@@H]2CCCN2C(=O)[C@@H]2CCCN2C(=O)[C@H](CC(C)(C)C)NC(=O)[C@H](CO)NC(=O)[C@H](CCCNC(=N)N)NC(=O)[C@H](CO)NC1=O) [((N-Me)G)-GIC+SRS-((tBu)A)-PPI-(Pen)+IPD-NH2] | 6.1 | 170 |

Now from value to binder:

| human MASP1 IC50 [1] [nM] | human MASP2 IC50 [2] [nM] | Binder |
| --- | --- | --- |
| 6.6 | 120 | WICSRS[tBuAla]PPI[NMeC]I-NH2 (disulfide 3-11; N-terminus assumed; SMILES CC[C@H](C)[C@H](NC(=O)[C@@H]1CSSC[C@H](NC(=O)[C@@H](NC(=O)[C@@H](N)Cc2c[nH]c3ccccc23)[C@@H](C)CC)C(=O)N[C@@H](CO)C(=O)N[C@@H](CCCNC(=N)N)C(=O)N[C@@H](CO)C(=O)N[C@@H](CC(C)(C)C)C(=O)N2CCC[C@H]2C(=O)N2CCC[C@H]2C(=O)N[C@@H]([C@@H](C)CC)C(=O)N1C)C(N)=O) [WIC+SRS-((tBu)A)-PPI-((N-Me)C)+I-NH2] |
| 6.9 | 400 | AICSRSLP[Oic]ICIPD-NH2 (disulfide 3-11; N-terminus assumed; SMILES CC[C@H](C)[C@H](NC(=O)[C@H](C)N)C(=O)N[C@H]1CSSC[C@@H](C(=O)N[C@H](C(=O)N2CCC[C@H]2C(=O)N[C@@H](CC(=O)O)C(N)=O)[C@@H](C)CC)NC(=O)[C@H]([C@@H](C)CC)NC(=O)[C@@H]2C[C@@H]3CCCC[C@@H]3N2C(=O)[C@@H]2CCCN2C(=O)[C@H](CC(C)C)NC(=O)[C@H](CO)NC(=O)[C@H](CCCNC(=N)N)NC(=O)[C@H](CO)NC1=O) [AIC+SRSLP-(Oic)-IC+IPD-NH2] |
| 6.3 | 220 | [Nva]ICSRSLPPICIPD-NH2 (disulfide 3-11; N-terminus assumed; SMILES CCC[C@H](N)C(=O)N[C@H](C(=O)N[C@H]1CSSC[C@@H](C(=O)N[C@H](C(=O)N2CCC[C@H]2C(=O)N[C@@H](CC(=O)O)C(N)=O)[C@@H](C)CC)NC(=O)[C@H]([C@@H](C)CC)NC(=O)[C@@H]2CCCN2C(=O)[C@@H]2CCCN2C(=O)[C@H](CC(C)C)NC(=O)[C@H](CO)NC(=O)[C@H](CCCNC(=N)N)NC(=O)[C@H](CO)NC1=O)[C@@H](C)CC) [(Nva)-IC+SRSLPPIC+IPD-NH2] |
| 6 | 740 | GICSRS[tBuAla]P[Oic]I[NMeC]IPD-NH2 (disulfide 3-11; N-terminus assumed; SMILES CC[C@H](C)[C@H](NC(=O)CN)C(=O)N[C@H]1CSSC[C@@H](C(=O)N[C@H](C(=O)N2CCC[C@H]2C(=O)N[C@@H](CC(=O)O)C(N)=O)[C@@H](C)CC)N(C)C(=O)[C@H]([C@@H](C)CC)NC(=O)[C@@H]2C[C@@H]3CCCC[C@@H]3N2C(=O)[C@@H]2CCCN2C(=O)[C@H](CC(C)(C)C)NC(=O)[C@H](CO)NC(=O)[C@H](CCCNC(=N)N)NC(=O)[C@H](CO)NC1=O) [GIC+SRS-((tBu)A)-P-(Oic)-I-((N-Me)C)+IPD-NH2] |
| 6.9 | 49 | [Orn]ICSRSLPP[Chg]CIPD-OH (disulfide 3-11; N-terminus assumed; SMILES CC[C@H](C)[C@H](NC(=O)[C@@H](N)CCCN)C(=O)N[C@H]1CSSC[C@@H](C(=O)N[C@H](C(=O)N2CCC[C@H]2C(=O)N[C@@H](CC(=O)O)C(=O)O)[C@@H](C)CC)NC(=O)[C@H](C2CCCCC2)NC(=O)[C@@H]2CCCN2C(=O)[C@@H]2CCCN2C(=O)[C@H](CC(C)C)NC(=O)[C@H](CO)NC(=O)[C@H](CCCNC(=N)N)NC(=O)[C@H](CO)NC1=O) [(Orn)-IC+SRSLPP-(Chg)-C+IPD-OH] |
| 6.4 | 65 | [4Pal]ICSRS[tBuAla]PPI[Pen]IPD-NH2 (disulfide 3-11; N-terminus assumed; SMILES CC[C@H](C)[C@H](NC(=O)[C@@H](N)Cc1ccncc1)C(=O)N[C@H]1CSSC(C)(C)[C@@H](C(=O)N[C@H](C(=O)N2CCC[C@H]2C(=O)N[C@@H](CC(=O)O)C(N)=O)[C@@H](C)CC)NC(=O)[C@H]([C@@H](C)CC)NC(=O)[C@@H]2CCCN2C(=O)[C@@H]2CCCN2C(=O)[C@H](CC(C)(C)C)NC(=O)[C@H](CO)NC(=O)[C@H](CCCNC(=N)N)NC(=O)[C@H](CO)NC1=O) [(4-Pal)-IC+SRS-((tBu)A)-PPI-(Pen)+IPD-NH2] |
